Laboratory results as given in PMC11417369, “DNA sequence and chromatin differentiate sequence-specific transcription factor binding in the human malaria parasite Plasmodium falciparum”.

T1: HDP1 homeodomain-like (Plasmodium falciparum, UniProt Q8IKH4 2990-3078)
T1 sequence: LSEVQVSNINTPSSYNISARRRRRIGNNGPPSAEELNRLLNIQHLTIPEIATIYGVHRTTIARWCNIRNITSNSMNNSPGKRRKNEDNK


Molecular target: T1, HDP1 homeodomain-like
Assay: gcPBM; about 25 ug protein; PBS, 1% milk, 0.2 mg/ml BSA, salmon testes DNA, 0.03% Triton X-100
Details: tags: N-terminal GST (pGEX-4T-1), kept; chain copies: 2; label: surface-attached array probe

Binder	binding signal
GTGCAC_site10136 (dsDNA) DNA 1: ATGATCTGTTTGTTTGTGCACATATATATATATTAA DNA 2: TTAATATATATATATGTGCACAAACAAACAGATCAT	11.3 ln median PBM intensity, better of two orientations
GTGCAC_site9405 (dsDNA) DNA 1: TAAAAATAGGAGTGTGTGCACATAAATTATATACTA DNA 2: TAGTATATAATTTATGTGCACACACTCCTATTTTTA	11.2 ln median PBM intensity, better of two orientations
GTGCAC_site10602 (dsDNA) DNA 1: GTTGTATACAATAATGTGCACATATTAATTTGAACT DNA 2: AGTTCAAATTAATATGTGCACATTATTGTATACAAC	11.2 ln median PBM intensity, better of two orientations
GTGCAC_site10701 (dsDNA) DNA 1: TAATACATAAATAATGTGCACATGGAAATATATCTT DNA 2: AAGATATATTTCCATGTGCACATTATTTATGTATTA	11.2 ln median PBM intensity, better of two orientations
GTGCAC_site10407 (dsDNA) DNA 1: CCTTTTTATCTTTTTGTGCACAGACCTTTTTTAAAT DNA 2: ATTTAAAAAAGGTCTGTGCACAAAAAGATAAAAAGG	11.2 ln median PBM intensity, better of two orientations
GTGCAC_site9651 (dsDNA) DNA 1: AATCGATAAAATGTTGTGCACATATTTTTATATTTA DNA 2: TAAATATAAAAATATGTGCACAACATTTTATCGATT	11.2 ln median PBM intensity, better of two orientations
GTGCAC_site9761 (dsDNA) DNA 1: ACATAATATACTATTGTGCACATATATATATATATA DNA 2: TATATATATATATATGTGCACAATAGTATATTATGT	11.2 ln median PBM intensity, better of two orientations
GTGCAC_site9801 (dsDNA) DNA 1: ATCATCTTTATTCAAGTGCACTGAAAATTTTTTATA DNA 2: TATAAAAAATTTTCAGTGCACTTGAATAAAGATGAT	11.2 ln median PBM intensity, better of two orientations
GTGCAC_site10419 (dsDNA) DNA 1: TTTTCTTTTTTTTTTGTGCACATAATATATAATTAT DNA 2: ATAATTATATATTATGTGCACAAAAAAAAAAGAAAA	11.2 ln median PBM intensity, better of two orientations
GTGCAC_site10133 (dsDNA) DNA 1: AATTTATATAATTTTGTGCACAATATTCATGTATAT DNA 2: ATATACATGAATATTGTGCACAAAATTATATAAATT	11.2 ln median PBM intensity, better of two orientations
GTGCAC_site10327 (dsDNA) DNA 1: AAATTATGCATCGAGGTGCGTCTTAAAATATAGTGG DNA 2: CCACTATATTTTAAGACGCACCTCGATGCATAATTT	11.2 ln median PBM intensity, better of two orientations
GTGCAC_site9742 (dsDNA) DNA 1: GAAAAATTTTTATATGTGCACATGTTATATATAATT DNA 2: AATTATATATAACATGTGCACATATAAAAATTTTTC	11.2 ln median PBM intensity, better of two orientations
GTGCAC_site9990 (dsDNA) DNA 1: TATATATATGTATATGTGCACAGTTTTCTTATTAAA DNA 2: TTTAATAAGAAAACTGTGCACATATACATATATATA	11.1 ln median PBM intensity, better of two orientations
GTGCAC_site9621 (dsDNA) DNA 1: TATATATATAAGATTGTGCACATTAAAATGATAGAA DNA 2: TTCTATCATTTTAATGTGCACAATCTTATATATATA	11.1 ln median PBM intensity, better of two orientations
GTGCAC_site9859 (dsDNA) DNA 1: TACATAAATATATGTGTGCACAATTTCGTATATTTA DNA 2: TAAATATACGAAATTGTGCACACATATATTTATGTA	11.1 ln median PBM intensity, better of two orientations
GTGCAC_site10210 (dsDNA) DNA 1: ATTGAATATGGATATGTGCACATATGTATATAAGTA DNA 2: TACTTATATACATATGTGCACATATCCATATTCAAT	11.1 ln median PBM intensity, better of two orientations
GTGCAC_site9896 (dsDNA) DNA 1: TCTTACGGATTCATTGTGCACATATATATATATATA DNA 2: TATATATATATATATGTGCACAATGAATCCGTAAGA	11.1 ln median PBM intensity, better of two orientations
GTGCAC_site10422 (dsDNA) DNA 1: ATCAATAAATAAAATGTGCACATAATATATTAATAC DNA 2: GTATTAATATATTATGTGCACATTTTATTTATTGAT	11.1 ln median PBM intensity, better of two orientations
GTGCAC_site10672 (dsDNA) DNA 1: AATTTCAAATTGTATGTGCACATGTAGAAGTACTTT DNA 2: AAAGTACTTCTACATGTGCACATACAATTTGAAATT	11.1 ln median PBM intensity, better of two orientations
GTGCAC_site9581 (dsDNA) DNA 1: TTATTACACACATATGTGCACATATAAAAGTACACG DNA 2: CGTGTACTTTTATATGTGCACATATGTGTGTAATAA	11.1 ln median PBM intensity, better of two orientations
GTGCAC_site9584 (dsDNA) DNA 1: TGTAATAATATTTATGTGCACATATATTAAACTATA DNA 2: TATAGTTTAATATATGTGCACATAAATATTATTACA	11.1 ln median PBM intensity, better of two orientations
GTGCAC_site10777 (dsDNA) DNA 1: ATAATATATACGTGTGTGCACATGACAAAAGCATAT DNA 2: ATATGCTTTTGTCATGTGCACACACGTATATATTAT	11.1 ln median PBM intensity, better of two orientations

Binder	binding signal
GTGCAC_site9799 (dsDNA) DNA 1: TATTATAATATATTTGTGCACATAATATCTCCGCTA DNA 2: TAGCGGAGATATTATGTGCACAAATATATTATAATA	11.1 ln median PBM intensity, better of two orientations
GTGCAC_site10138 (dsDNA) DNA 1: TATTTATAAATATGTGTGCACAATTTATTTTATAAT DNA 2: ATTATAAAATAAATTGTGCACACATATTTATAAATA	11 ln median PBM intensity, better of two orientations
GTGCAC_site10617 (dsDNA) DNA 1: GAGGTCTTTTTTAATGTGCACATATATATATATATA DNA 2: TATATATATATATATGTGCACATTAAAAAAGACCTC	11 ln median PBM intensity, better of two orientations
GTGCAC_site10288 (dsDNA) DNA 1: ATAGATCCTAATGTTGTGCACATGTAAATTAATATA DNA 2: TATATTAATTTACATGTGCACAACATTAGGATCTAT	11 ln median PBM intensity, better of two orientations
GTGCAC_site9637 (dsDNA) DNA 1: GGAAAATATGTTTGTGTGCACAGCTAGCTATTTGTA DNA 2: TACAAATAGCTAGCTGTGCACACAAACATATTTTCC	11 ln median PBM intensity, better of two orientations
GTGCAC_site10307 (dsDNA) DNA 1: AAATAATTAGAAATAGTGCACATAATTAAGGGATAC DNA 2: GTATCCCTTAATTATGTGCACTATTTCTAATTATTT	10.9 ln median PBM intensity, better of two orientations
GTGCAC_site10060 (dsDNA) DNA 1: TCTTTTTCTTCTTATGTGCACATCAATTATGCTTCT DNA 2: AGAAGCATAATTGATGTGCACATAAGAAGAAAAAGA	10.8 ln median PBM intensity, better of two orientations
GTGCAC_site10106 (dsDNA) DNA 1: ATATTTTATATATTTGTGCACAATATTATAATATAT DNA 2: ATATATTATAATATTGTGCACAAATATATAAAATAT	10.8 ln median PBM intensity, better of two orientations
GTGCAC_site10725 (dsDNA) DNA 1: TTTTGTTATTTTGAAGTGCACTTTCCACTTAATATA DNA 2: TATATTAAGTGGAAAGTGCACTTCAAAATAACAAAA	10.7 ln median PBM intensity, better of two orientations
GTGCAC_site9497 (dsDNA) DNA 1: TAATTGAGCAAATGAGTGCACAGCATAAAGTATAGT DNA 2: ACTATACTTTATGCTGTGCACTCATTTGCTCAATTA	10.7 ln median PBM intensity, better of two orientations
GTGCAC_site10596 (dsDNA) DNA 1: AAAATTTATAGTATGGTGCATAAAAATATATATATA DNA 2: TATATATATATTTTTATGCACCATACTATAAATTTT	10.6 ln median PBM intensity, better of two orientations
GTGCAC_site10605 (dsDNA) DNA 1: GAAGTAGATGGAAAAGTGCACTGTAATGGTTATATT DNA 2: AATATAACCATTACAGTGCACTTTTCCATCTACTTC	10.6 ln median PBM intensity, better of two orientations
GTGCAC_site10550 (dsDNA) DNA 1: TAAACGTTAGTATGTGTGCACATTAGTAATTTAAAA DNA 2: TTTTAAATTACTAATGTGCACACATACTAACGTTTA	10.6 ln median PBM intensity, better of two orientations
GTGCAC_site10127 (dsDNA) DNA 1: ACATATAAATATTGTGTGCACACACATAATATATAT DNA 2: ATATATATTATGTGTGTGCACACAATATTTATATGT	10.5 ln median PBM intensity, better of two orientations
GTGCAC_site9416 (dsDNA) DNA 1: TTTCAAAAAAATAATGTGCACATTAGAAAATAAATA DNA 2: TATTTATTTTCTAATGTGCACATTATTTTTTTGAAA	10.5 ln median PBM intensity, better of two orientations
GTGCAC_site10696 (dsDNA) DNA 1: AATGACTACATAATAGTGCAATATTAAAGAAAATTA DNA 2: TAATTTTCTTTAATATTGCACTATTATGTAGTCATT	10.4 ln median PBM intensity, better of two orientations
GTGCAC_site10480 (dsDNA) DNA 1: GGTATTTATGGACGCGTGCACACACATATGAACAAA DNA 2: TTTGTTCATATGTGTGTGCACGCGTCCATAAATACC	10.4 ln median PBM intensity, better of two orientations
GTGCAC_site10212 (dsDNA) DNA 1: TATATATATATATATGTGCACATATATATGATATTA DNA 2: TAATATCATATATATGTGCACATATATATATATATA	10.3 ln median PBM intensity, better of two orientations
GTGCAC_site10120 (dsDNA) DNA 1: AAAAACAAACTGTGCATGCACCAAAAAAAAAAAAAA DNA 2: TTTTTTTTTTTTTTGGTGCATGCACAGTTTGTTTTT	10.3 ln median PBM intensity, better of two orientations
GTGCAC_site10384 (dsDNA) DNA 1: TTTTCTTGGTTCAGTGTGCACTTATATATATATATA DNA 2: TATATATATATATAAGTGCACACTGAACCAAGAAAA	10.2 ln median PBM intensity, better of two orientations
GTGCAC_site9657 (dsDNA) DNA 1: CATAATTTAAAAAAGGTGCAAAATGGATAATATATA DNA 2: TATATATTATCCATTTTGCACCTTTTTTAAATTATG	10.1 ln median PBM intensity, better of two orientations
GTGCAC_site10461 (dsDNA) DNA 1: TTTATACATACATTCGTGCACATACGTATAACATAT DNA 2: ATATGTTATACGTATGTGCACGAATGTATGTATAAA	10.1 ln median PBM intensity, better of two orientations
